Laboratory results published in US20160009788A1 (UNITED STATES OF AMERICA AS REPRESENTED BY THE SECRETARY …, published 2016).

B1: anti-NV Fab F11 (Fab, V domains shown)
VH: EVQLVETGGSLVQPGGSLRLSCAASGFSVSIYHMSWVRQAPGKGLEWVSLLYSGGSTYYADSVKGRFTISRDNSKNTLYLQMNSLRAEDTAVYYCARDYSGSWVGDEARSYYYYYYMDVWGKGTTVTVS
VL: ELQVTQSPSSLSASVGDRVTITCQASQDISYYLNWYQQRPGKVPKLLIYSASYLHSGVPSRFSGSGSGTDFTLTISSLQPEDVATYYCQRTYNAPYTFGQGTKVEIKR
B2: anti-NV Fab B7 (Fab, V domains shown)
VH: EVQLEESGGDLVQPGGSLTLSCAASGFTFSRYWMSWVRQAPGKGPEWVASIKKDGSETFYADSVKGRFIISRDIAKTSLYLQMNSLRADDTAVYYCLRAWYSSAYDFWGQGTLVTVS
VL: ELELTQSPSSLSASVGDRVTITCRASQSISNYLNWYQQKPGKAPNLLIYYASTLQSGVPSRFSGSGSGTDFTLTISSLQPEDFATYYCQHGYGAIAFGQGTRLEIKR
B3: anti-GII.4 NV Fab B72 (Fab, V domains shown)
VH: EVQLEQSGAEVKKPGSSVKVSCKISGGTFSRHPISWVRQAPGQGLLWMGAIILRAGTTKYEQRFQGRITITADESTGTAYMELHSLTSEDTGLYFCATDRMGTFDELLFDSWGQGTLVTVSS
VL: ELQMTQSPASLSASVGDRVTITCRASQGIRNNLGWYQQKPGKPPKLLIYAASTLQSGVPSRFSGSGSGTGFTLTISSLQPEDFATYYCLQDYDFPLTFGGGTKVEIKR
B4: anti-GII.4 NV Fab C9 (Fab, V domains shown)
VH: EVQLEESGGVLVKPGGSLRLSCAASGFTFSSHAMHWVRQAPGKGLEWVAIINSGHRADYADSVKDRFTISRDNSKNTLYLQMDSLRPEDTAFYYCAREGDQQDVAD
VL: ELTQSPSTLSASVGDRVTITCRASEDIMSYLAWYQQKPAKAPRLLIYYASSLQSGVPSRFSGSGSGTEFTLTISSLQPEDFATYYCQQLHTFPITFGPGTRLDIKRT
B5: anti-NoV GII.4 mAb D4 (IgG) (antibody, V domains shown)
VH: EVQLVESGPGLVKPSETLSLTCAVSGASIRRANWWGWIRQAPGKGLEWLGSIFINAGTIYNPSLTGRVTVSADTSKNLFSLKLGSVTAADTAVYYCVKSYGDGDDNYNSFYYYMDVWGKGTSVIVSS
VL: DVVMTQSPSSLSASVGDRVTITCRASQDIRNNLAWYQHKPGKAPKLLIYYASKLQSGVPLRFSGSGSGTDYTLFISSLQPEDFATYYCQQYKTDTPYSFGQGTKVDIKR
B6: anti-GII.4 NV Fab D4 (Fab, V domains shown)
VH: B5 VH
VL: B5 VL
B7: anti-NV Fab E5 (Fab, V domains shown)
VH: EVQLEQSGGGLIKPGGSLRLSCAASGFTFTKYVMHWVRQAPEKGLQWVSAIGGSGGSAWYADSVKGRFTISRDNSKNTLYLQMNSLRAEDTAVYYCARDHARYSGYNSPHEVDSWGQGTLVAVS
VL: ELELTQSPSSLSASVGDRVTITCRASQGISNYLAWYQQKPGKVPKLLIYAASTLQSGVPSRFSGSGSGTDFTLTISSLQPEDVATYYCQKYNSAPLTFGGGTKVEIKR
notes: also called ES [sic]
B8: anti-NV Fab D8 (Fab, V domains shown)
VH: EVQLEESGGGLVQPGGSLRVSCAASGFPFNGYWIHWVRQAPGKGLEWVSRVNSDGRITNFADSVMGRFTMSRDNAKSTVYLQMNSLRAEDTAMYYCSRGGYTGYPEGHWGQGTLVTVS
VL: ELQMTQSPSSLSAAVGDSVTITCRASQGISIHLAWYQQKPGKVPNLLIYAASTLQSGVPSRFSGSGSGTDFTLTINSLQPEVFATYYCQKYDSAPFTFGPGTKVDIKR
B9: anti-NV IgG G4 (antibody, V domains shown)
VH: EVQLEESGGGLVKPGGSLRLSCAASGFTFSHYVMYWVRQAPEKGLEWVSTISGSGSSTWYPDSVKGRFTVSRDNSKNTLYLQMNSLRGDDTAVYYCARLQGQLVYWGLGTLVTVS
VL: ELQMTQSPSTLSASVGDRVTITCRASQGISSWLAWYQQKPGRAPKLLIYKSSTLESGVPSRFSGSGSGTEFTLTISSLQPDDFATYFCQQYSSNPPLTFGGGTKVEIKR
B10: anti-NoV GII.4 mAb G3 (IgG) (antibody, V domains shown)
VH: EVQLEQSGGGLVKPGGSLRLSCAGSGFSFSAHTINWVRQAPGKGLEWVGFIRSQAQGGTREYAASVKGRIILSRDDSENSAYLQMNSLNTGDTAVYYCARDSSRGYYSYYLDVWGKGTTVTVSS
VL: ELTQSPSSLSASVGDRVTITCRASQGISNRLNWYQQKPGKAPKLLIYDASSLESGVPSRFSGSGSGTDFTLTISSQQPEDFATYYCQQFNSYPLTFGGGTKVEIKR
B11: anti-GII.4 NV Fab G3 (Fab, V domains shown)
VH: B10 VH
VL: B10 VL

Experiments:
bovine serum albumin [1] = biological target: T1, bovine serum albumin (bovine, UniProt P02769 25-607); experiment: ELISA, antigen on the solid phase, soluble Fab
T1 construct: Control antigen; also called BSA

[2] = biological target: MD145 virus-like particle (GII.4, capsid protein VP1) (Norovirus GII.4 strain MD145-12); experiment: SPR (Biacore 1000), Fab on MD145 virus-like particle
[3] = biological target: MD145 virus-like particle (GII.4, capsid protein VP1) (Norovirus GII.4 strain MD145-12)
bovine serum albumin [4] = biological target: T1, bovine serum albumin; experiment: ELISA, antigen coated directly on the plate
[5] = biological target: T2, Norwalk virus (NV, GI.1) recombinant virus-like particles (capsid protein VP1) (Norwalk virus, UniProt Q83884 1-530)
T2 sequence: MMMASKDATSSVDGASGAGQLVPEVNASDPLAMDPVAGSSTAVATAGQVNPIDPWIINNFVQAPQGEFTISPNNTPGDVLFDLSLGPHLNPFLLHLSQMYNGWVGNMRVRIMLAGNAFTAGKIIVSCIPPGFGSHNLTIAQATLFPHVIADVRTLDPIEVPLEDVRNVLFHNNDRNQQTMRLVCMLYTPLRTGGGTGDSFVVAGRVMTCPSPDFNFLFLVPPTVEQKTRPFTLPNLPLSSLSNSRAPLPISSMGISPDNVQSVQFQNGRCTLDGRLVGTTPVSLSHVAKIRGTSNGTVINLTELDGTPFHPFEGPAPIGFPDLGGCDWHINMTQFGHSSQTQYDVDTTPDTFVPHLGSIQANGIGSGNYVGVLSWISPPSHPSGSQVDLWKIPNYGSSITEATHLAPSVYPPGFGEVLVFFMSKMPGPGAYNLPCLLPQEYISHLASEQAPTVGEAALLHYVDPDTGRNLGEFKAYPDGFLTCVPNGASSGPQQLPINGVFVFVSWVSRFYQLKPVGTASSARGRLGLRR

T1 sequence (P02769 25-607 limits assumed): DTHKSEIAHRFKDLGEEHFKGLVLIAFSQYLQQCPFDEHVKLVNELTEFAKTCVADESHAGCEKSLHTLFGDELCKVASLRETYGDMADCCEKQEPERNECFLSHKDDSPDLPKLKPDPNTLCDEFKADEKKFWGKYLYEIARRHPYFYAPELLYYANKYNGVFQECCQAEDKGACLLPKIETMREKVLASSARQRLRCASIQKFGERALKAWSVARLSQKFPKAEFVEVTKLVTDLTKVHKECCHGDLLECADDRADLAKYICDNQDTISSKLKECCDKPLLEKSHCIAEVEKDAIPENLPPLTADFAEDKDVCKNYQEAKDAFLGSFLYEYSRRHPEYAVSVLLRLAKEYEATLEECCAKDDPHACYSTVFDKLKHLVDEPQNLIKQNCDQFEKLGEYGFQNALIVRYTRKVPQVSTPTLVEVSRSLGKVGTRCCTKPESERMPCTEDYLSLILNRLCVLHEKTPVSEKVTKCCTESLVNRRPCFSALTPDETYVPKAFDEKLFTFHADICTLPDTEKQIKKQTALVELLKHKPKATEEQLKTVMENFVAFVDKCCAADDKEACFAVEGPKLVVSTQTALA

Row | Binder | Kd [2] [nM] | koff [2] [s⁻¹] | kon [2] [M⁻¹ s⁻¹] | further results
1 | B1 |  |  |  | binding result (bovine serum albumin [1]): no binding
2 | B2 |  |  |  | binding result (bovine serum albumin [1]): no binding
3 | B3 | 0.351 | 5.66e-05 | 161000 | 
4 | B4 | 27.7 | 0.00382 | 138000 | 
5 | B5 |  |  |  | IC50 (read off the curve) [3]: 1 µg/mL
6 | B6 | 0.121 | 0.000178 | 1.47e+06 | 
7 | B7 |  |  |  | binding result (bovine serum albumin [1]): no binding
8 | B8 |  |  |  | binding result (bovine serum albumin [4]): no binding
9 | B9 |  |  |  | IC50 [5]: ~2.8 nM
10 | B10 |  |  |  | IC50 (read off the curve) [3]: 1 µg/mL
11 | B11 | 2.61 | 0.000421 | 162000 | 
